Laboratory results from paper doi:10.1101/2023.02.25.530030.

molecular target: human Mdm2 (1-125) (human); test: fluorescence polarisation
Sequence (Q00987 1-125): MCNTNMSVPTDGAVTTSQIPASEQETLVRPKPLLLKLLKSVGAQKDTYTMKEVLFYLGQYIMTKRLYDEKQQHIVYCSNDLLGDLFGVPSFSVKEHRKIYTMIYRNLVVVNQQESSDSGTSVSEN

Point of comparison: azide-ATSP-7041 (MP-081) E5P (peptide), Kd 7800 nM. Against it:
- MP-444: Ac-K(N3)-TF(X)EYWAQ(Cba)(X)EAFAAF-NH2 (peptide) — 5200-fold lower, 1.5 nM
- azide-ATSP-7041 (MP-081) with Cba10 substituted with Ala (peptide) — 68-fold lower, 115 nM
- azide-ATSP-7041 (MP-081) with Cba10 substituted with Leu (peptide) — 140-fold lower, 56 nM
- MP-793 (all-D di-alkyne stapled analog of ^dPMI-δ(5-12 staple)) (peptide) — lower, < 1 nM
- azide-ATSP-7041 (MP-081) (peptide) — 1600-fold lower, 5 nM
- azide-ATSP-7041 (L1N, E5N, A8N, S12N, A13N, A14N) (peptide) — 520-fold lower, 15 nM
- azide-ATSP-7041 (L1D, E5D, A8D) (peptide) — 1600-fold lower, 5 nM
